From patent US20220380463A1 (Adimab, published 2022)

Tests used:
[1] = biological target: T1, human CD3 on CD3+ Jurkat cells (human, UniProt P07766 23-207); assay: flow cytometry on CD3+ Jurkat cells, ratio of MFI at pH 6.0 to pH 7.4
T1 construct: whole, on cells; Native CD3 complex on cells; the other CD3 chains are not specified for this assay; also called Human CD3+ Jurkat
Description: (§1) Specificity of the anti-CD3 antibodies for human CD3+ Jurkat cells compared to CHO-S cells at pH 6.0 and 7.4 was determined using a FACS cell binding assay. Briefly, CD3+ human Jurkat cells and CHO-S cells were thawed and washed with cold PBSF buffer, pH 7.4 (PBS+0.1% BSA, pH 7.4). About 200,000 cells were aliquoted per well of a 96-well plate and pelleted by centrifugation (5 minutes at 500×g). The cells were washed with either PBSF pH 7.4 or PBSF pH 6.0 (PBS+0.1% BSA, pH 6.0), and then resuspended in 100 ul in either PBSF pH 7.4 or PBSF pH 6.0 with IgG antibody produced in yeast (100 nM). The mixture (cells+antibody) was incubated for 20 minutes on ice, then washed twice with either PBSF pH 7.4 or PBSF pH 6.0. Cells were resuspended in 50 ul of propidium iodide (1:500 dilution) and anti-human IgG-RPE (1:100 dilution) prepared in either PBSF pH 7.4 or PBSF pH 6.0, then incubated for 20 minutes on ice in the dark before cells were washed twice with either PBSF pH 7.4 or PBSF pH 6.0. Binding was analyzed on FACS Canto II.
(§2) Cell binding assays. CD3+ human Jurkat cells (ATCC) and CHO-S cells (Invitrogen/ThermoFisher) were thawed and washed with cold PBSF buffer, pH 7.4 (PBS+0.1% BSA, pH 7.4). About 200,000 cells were aliquoted per well of a 96-well plate (FACS Assay Plate VWR BD 353263) and pelleted by centrifugation (5 minutes at 500×g). The cells were washed with either PBSF pH 7.4 or PBSF pH 6.0 (PBS+0.1% BSA, pH 6.0), and then resuspended in 100 ul in either PBSF pH 7.4 or PBSF pH 6.0 with IgG antibody (100 nM) produced in yeast as described above. The mixture (cells+antibody) was incubated for 20 minutes on ice, then washed twice with either PBSF pH 7.4 or PBSF pH 6.0. Cells were resuspended in 50 ul of propidium iodide (Roche; 1:500 dilution) and anti-human IgG-RPE (Southern Biotech; 1:100 dilution) prepared in either PBSF pH 7.4 or PBSF pH 6.0, then incubated for 20 minutes on ice in the dark before cells were washed twice with either PBSF pH 7.4 or PBSF pH 6.0. Binding was analyzed on FACS Canto II.

[2] = biological target: T1, human CD3 on CD3+ Jurkat cells; assay: flow cytometry, 100 nM IgG on CD3+ Jurkat cells, pH 6.0
Description: as §1, §2

[3] = biological target: T1, human CD3 on CD3+ Jurkat cells; assay: flow cytometry, 100 nM IgG on CD3+ Jurkat cells, pH 7.4
Description: as §1, §2

T1 sequence (P07766 23-207): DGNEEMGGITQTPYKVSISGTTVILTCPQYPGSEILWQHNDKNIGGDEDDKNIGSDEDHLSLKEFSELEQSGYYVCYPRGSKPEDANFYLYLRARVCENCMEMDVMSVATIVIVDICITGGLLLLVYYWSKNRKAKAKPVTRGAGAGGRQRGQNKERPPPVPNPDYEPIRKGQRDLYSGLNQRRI

Binder	MFI pH 6.0/MFI pH 7.4 [1]	MFI pH 6.0 [2]	MFI pH 7.4 [3]
SAD10318_P01_B01 (ADI-48574) (antibody, V domains shown, IgG; also called Ab2) VH: QVQLVQSGAEVKKPGASVKVSCKASGFNIKDYYMHWVRQAPGQRLEWMGWIDLENANTIYDAKFQGRVTITRDTSASTAYMELSSLRSEDTAVYYCARDAYGRYHYDHWGQGTLVTVSS VL: DIVMTQSPDSLAVSLGERATINCKSSQSLLNAHTGHNYLAWYQQKPGQPPKLLIYWASTRESGVPDRFSGSGSGTDFTLTISSLQAEDVAVYYCKQSYSRRTFGGGTKVEIK	23.7	3550 MFI	150 MFI
SAD10318_P01_G01 (ADI-48579) (antibody, V domains shown, IgG; also called Ab215) VH: QVQLVQSGAEVKKPGASVKVSCKASGFNIKDYYMHWVRQAPGQRLEWMGWIDLENANTIYDAKFQGRVTITRDTSASTAYMELSSLRSEDTAVYYCARDAHGHYFYDVWGQGTLVTVSS VL: DIVMTQSPDSLAVSLGERATINCKSSQSLLHAHTGKNYLAWYQQKPGQPPKLLIYWASTRESGVPDRFSGSGSGTDFTLTISSLQAEDVAVYYCKQSHSHRTFGGGTKVEIK	6.8	2070 MFI	306 MFI
SAD10318_P01_F02 (ADI-48585) (antibody, V domains shown, IgG; also called Ab14) VH: QVQLVQSGAEVKKPGASVKVSCKASGFNIKDYYMHWVRQAPGQRLEWMGWIDLENANTIYDAKFQGRVTITRDTSASTAYMELSSLRSEDTAVYYCARDAHGHYFYDVWGQGTLVTVSS VL: DIVMTQSPDSLAVSLGERATINCKSSQSLLNAHTGKNHLAWYQQKPGQPPKLLIYWASTRESGVPDRFSGSGSGTDFTLTISSLQAEDVAVYYCKQSHSHRTFGGGTKVEIK	8.5	381 MFI	45 MFI
SAD10318_P01_H03 (ADI-48591) (antibody, V domains shown, IgG; also called Ab102) VH: QVQLVQSGAEVKKPGASVKVSCKASGFNIKDYYMHWVRQAPGQRLEWMGWIDLENANTIYDAKFQGRVTITRDTSASTAYMELSSLRSEDTAVYYCAHDAYGHYFYDVWGQGTLVTVSS VL: DIVMTQSPDSLAVSLGERATINCKSSQSLLNARTGHNYLAWYQQKPGQPPKLLIYWASTRESGVPDRFSGRGSGTDFTLTISSLQAEDVAVYYCKQSYHHRTFGGGTKVEIK	31.6	4430 MFI	140 MFI
SAD10318_P01_D01 (ADI-48576) (antibody, V domains shown, IgG; also called Ab182) VH: QVQLVQSGAEVKKPGASVKVSCKASGFNIKDYYMHWVRQAPGQRLEWMGWIDLENANTIYDAKFQGRVTITRDTSASTAYMELSSLRSEDTAVYYCARDAYHRYFYDHWGQGTLVTVSS VL: DIVMTQSPDSLAVSLGERATINCKSSQSLLNAHTGKNHLAWYQQKPGQPPKLLIYWASTRESGVPDRFSGSGSGTDFTLTISSLQAEDVAVYYCKQSHSHRTFGGGTKVEIK	20.1	849 MFI	42 MFI
SAD10318_P01_D03 (ADI-48588) (antibody, V domains shown, IgG; also called Ab58) VH: QVQLVQSGAEVKKPGASVKVSCKASGFNIKDYYMHWVRQAPGQRLEWMGWIDLENANTIYDAKFQGRVTITRDTSASTAYMELSSLRSEDTAVYYCARDHYGHYFYDVWGQGTLVTVSS VL: DIVMTQSPDSLAVSLGERATINCKSSQSLLNAHTGHNYLAWYQQKPGQPPKLLIYWASTRESGVPDRFSGSGSGTDFTLTISSLQAEDVAVYYCKQSHSHRTFGGGTKVEIK	83.3	4940 MFI	59 MFI
SAD10318_P01_C01 (ADI-48575) (antibody, V domains shown, IgG; also called Ab113) VH: QVQLVQSGAEVKKPGASVKVSCKASGFNIKDYYMHWVRQAPGQRLEWMGWIDLENANTIYDAKFQGRVTITRDTSASTAYMELSSLRSEDTAVYYCARDAYHRYHYDVWGQGTLVTVSS VL: DIVMTQSPDSLAVSLGERATINCKSSQSLLNAHTHKNYLAWYQQKPGQPPKLLIYWASTRESGVPDRFSGSGSGTDFTLTISSLQAEDVAVYYCKQSHSHRTFGGGTKVEIK	38.4	3110 MFI	81 MFI
SAD10318_P01_G03 (ADI-48590) (antibody, V domains shown, IgG; also called Ab91) VH: QVQLVQSGAEVKKPGASVKVSCKASGFNIKDYYMHWVRQAPGQRLEWMGWIDLENANTIYDAKFQGRVTITRDTSASTAYMELSSLRSEDTAVYYCAHDAYGHYFYDVWGQGTLVTVSS VL: DIVMTQSPDSLAVSLGERATINCKSSQSLLNAHTGHNYLAWYQQKPGQPPKLLIYWASTRESGVPDRFSGSGSGTDFTLTISSLQAEDVAVYYCKQSYHHRTFGGGTKVEIK	60.3	1950 MFI	32 MFI
SAD10318_P01_G02 (ADI-48586) (antibody, V domains shown, IgG; also called Ab25) VH: QVQLVQSGAEVKKPGASVKVSCKASGFNIKDYYMHWVRQAPGQRLEWMGWIDLENANTIYDAKFQGRVTITRDTSASTAYMELSSLRSEDTAVYYCARDAYHHYFYDVWGQGTLVTVSS VL: DIVMTQSPDSLAVSLGERATINCKSSQSLLNARTGKNHLAWYQQKPGQPPKLLIYWASTRESGVPDRFSGSGSGTDFTLTISSLQAEDVAVYYCKQSYSHRTFGGGTKVEIK	24.3	1090 MFI	45 MFI
SAD10318_P01_E01 (ADI-48577) (antibody, V domains shown, IgG; also called Ab193) VH: QVQLVQSGAEVKKPGASVKVSCKASGFNIKDYYMHWVRQAPGQRLEWMGWIDLENANTIYDAKFQGRVTITRDTSASTAYMELSSLRSEDTAVYYCARDAHHRYFYDVWGQGTLVTVSS VL: DIVMTQSPDSLAVSLGERATINCKSSQSLLNAHEGKNYLAWYQQKPGQPPKLLIYWASTRESGVPDRFSGSGSGTDFTLTISSLQAEDVAVYYCKQSHSHRTFGGGTKVEIK	73.1	5370 MFI	73 MFI
SAD10318_P01_H01 (ADI-48580) (antibody, V domains shown, IgG; also called Ab226) VH: QVQLVQSGAEVKKPGASVKVSCKASGFNIKDYYMHWVRQAPGQRLEWMGWIDLENANTIYDAKFQGRVTITRDTSASTAYMELSSLRSEDTAVYYCARDAHHRYFYDVWGQGTLVTVSS VL: DIVMTQSPDSLAVSLGERATINCKSSQSLLNAHTGKNHLAWYQQKPGQPPKLLIYWASTRESGVPDRFSGSGSGTDFTLTISSLQAEDVAVYYCKQSYHHRTFGGGTKVEIK	22.5	933 MFI	41 MFI
SAD10318_P01_F03 (ADI-48589) (antibody, V domains shown, IgG; also called Ab80) VH: QVQLVQSGAEVKKPGASVKVSCKASGFNIKDYYMHWVRQAPGQRLEWMGWIDLENANTIYDAKFQGRVTITRDTSASTAYMELSSLRSEDTAVYYCARDAHGRYFYDHWGQGTLVTVSS VL: DIVMTQSPDSLAVSLGERATINCKSSQSLLNAHTGHNYLAWYQQKPGQPPKLLIYWASTRESGVPDRFSGSGSGTDFTLTISSLQAEDVAVYYCKQSYSHRTFGGGTKVEIK	11	5240 MFI	475 MFI
SAD10318_P01_D02 (ADI-48584) (antibody, V domains shown, IgG; also called Ab3) VH: QVQLVQSGAEVKKPGASVKVSCKASGFNIKDYYMHWVRQAPGQRLEWMGWIDLENANTIYDAKFQGRVTITRDTSASTAYMELSSLRSEDTAVYYCARDAHHRYFYDVWGQGTLVTVSS VL: DIVMTQSPDSLAVSLGERATINCKSSQSLLNARTGKNHLAWYQQKPGQPPKLLIYWASTRESGVPDRFSGSGSGTDFTLTISSLQAEDVAVYYCKQSHSHRTFGGGTKVEIK	23.9	2180 MFI	91 MFI
SAD10318_P01_F01 (ADI-48578) (antibody, V domains shown, IgG; also called Ab204) VH: QVQLVQSGAEVKKPGASVKVSCKASGFNIKDYYMHWVRQAPGQRLEWMGWIDLENANTIYDAKFQGRVTITRDTSASTAYMELSSLRSEDTAVYYCARDAYGHYFYDHWGQGTLVTVSS VL: DIVMTQSPDSLAVSLGERATINCKSSQSLLNAHTGKNHLAWYQQKPGQPPKLLIYWASTRESGVPDRFSGSGSGTDFTLTISSLQAEDVAVYYCKQSYHHRTFGGGTKVEIK	11.7	418 MFI	36 MFI
SAD10318_P01_B02 (ADI-48582) (antibody, V domains shown, IgG; also called Ab248) VH: QVQLVQSGAEVKKPGASVKVSCKASGFNIKDYYMHWVRQAPGQRLEWMGWIDLENANTIYDAKFQGRVTITRDTSASTAYMELSSLRSEDTAVYYCARDHYHRYFYDVWGQGTLVTVSS VL: DIVMTQSPDSLAVSLGERATINCKSSQSLLNARTGHNHLAWYQQKPGQPPKLLIYWASTRESGVPDRFSGSGSGTDFTLTISSLQAEDVAVYYCKQSHSHRTFGGGTKVEIK	9	326 MFI	36 MFI
